Assay results published in article PMC10843171.

Tests used:
[1] = target: PF-07209960, anti-human PD-1–IL15 mutein fusion protein (human); assay: SPR; Biacore T200; fusion protein captured via anti-human Fc on a CM4 chip, receptor injected as analyte; 37°C; 10 mM HEPES, 150 mM NaCl, 0.05% Tween-20, pH 7.4, 1 mg/mL BSA; steady-state 1:1 Langmuir fit
[2] = target: human FcRn (human) (UniProt P55899); assay: not stated
[3] = target: cyno FcRn (cynomolgus monkey) (UniProt Q8SPV9); assay: not stated
Sequence of UniProt Q8SPV9 (Q8SPV9 whole entry, looked up, tested part not stated): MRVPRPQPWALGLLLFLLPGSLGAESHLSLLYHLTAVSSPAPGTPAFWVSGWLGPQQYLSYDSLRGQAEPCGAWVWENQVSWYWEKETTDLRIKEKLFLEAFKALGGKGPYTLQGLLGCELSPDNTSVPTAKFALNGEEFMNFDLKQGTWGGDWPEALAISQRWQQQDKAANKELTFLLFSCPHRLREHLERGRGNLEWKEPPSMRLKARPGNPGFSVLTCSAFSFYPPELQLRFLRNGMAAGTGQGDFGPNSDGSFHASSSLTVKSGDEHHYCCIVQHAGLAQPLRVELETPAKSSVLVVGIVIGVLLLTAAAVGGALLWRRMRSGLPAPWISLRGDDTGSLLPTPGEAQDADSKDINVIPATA

Sequence of UniProt P55899 (P55899 whole entry, looked up, tested part not stated): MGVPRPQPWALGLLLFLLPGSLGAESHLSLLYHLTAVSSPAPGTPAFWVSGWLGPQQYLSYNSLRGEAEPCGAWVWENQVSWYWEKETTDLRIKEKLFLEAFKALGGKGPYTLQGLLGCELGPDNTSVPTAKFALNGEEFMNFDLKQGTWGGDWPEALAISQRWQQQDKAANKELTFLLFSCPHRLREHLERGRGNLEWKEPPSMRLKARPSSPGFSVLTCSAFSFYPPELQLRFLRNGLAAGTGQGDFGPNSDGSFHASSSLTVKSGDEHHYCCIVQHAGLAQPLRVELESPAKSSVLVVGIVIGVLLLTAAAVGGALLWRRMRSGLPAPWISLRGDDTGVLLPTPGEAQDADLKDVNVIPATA

Kd [1] [nM]	Kd [2] [nM]	Kd [3] [nM]	Substance
2400	–	–	monkey IL-2Rβ (from UniProt Q38J85 27-551) (receptor)
4000	–	–	human IL-2Rβ (from UniProt P14784 27-551) (receptor)
–	1040	426	PF-07209960, anti-human PD-1–IL15 mutein fusion protein
